Key:
[1] = molecular target: wildtype Chinese hamster BiP, unmodified (BiP^WT) (Chinese hamster (Cricetulus griseus)) (UniProt G3I8R9)
[2] = molecular target: AMPylated wildtype Chinese hamster BiP (BiP^WT-AMP) (UniProt G3I8R9); assay: BLI; settings: trace 6; AMPylated BiP WT; association in presence of ATP; signal at end of association step (20 min); parent is trace 4; parent: est. 0.95; read off a plot
[3] = molecular target: wildtype Chinese hamster BiP, unmodified (BiP^WT) (UniProt G3I8R9); assay: BLI; settings: trace 3; association in presence of ATP; signal at end of association step (20 min); parent is trace 1; parent: est. 4.2; read off a plot
[4] = molecular target: T1, Chinese hamster BiP T229A-V461F double mutant (BiP^T229A-V461F), unmodified (Chinese hamster (Cricetulus griseus), UniProt G3I8R9 19-654, T229A | V461F); assay: BLI; Octet RED96, streptavidin sensors saturated with biotinylated GST-J (no P15); BiP^T229A-V461F at different concentrations in solution, 1 mM ATP in baseline, association and dissociation; HKM with 0.05% Triton X-100, 24°C; KD from steady state binding signals; binding sensitive to increasing KCl; settings: both partners purified
T1 construct: BiP (Grp78), Chinese hamster (Cricetulus griseus); Construct limits: see note of m1; source: E. coli M15, purified (Ni-NTA)
T1 sequence (G3I8R9 19-654 T229A/V461F): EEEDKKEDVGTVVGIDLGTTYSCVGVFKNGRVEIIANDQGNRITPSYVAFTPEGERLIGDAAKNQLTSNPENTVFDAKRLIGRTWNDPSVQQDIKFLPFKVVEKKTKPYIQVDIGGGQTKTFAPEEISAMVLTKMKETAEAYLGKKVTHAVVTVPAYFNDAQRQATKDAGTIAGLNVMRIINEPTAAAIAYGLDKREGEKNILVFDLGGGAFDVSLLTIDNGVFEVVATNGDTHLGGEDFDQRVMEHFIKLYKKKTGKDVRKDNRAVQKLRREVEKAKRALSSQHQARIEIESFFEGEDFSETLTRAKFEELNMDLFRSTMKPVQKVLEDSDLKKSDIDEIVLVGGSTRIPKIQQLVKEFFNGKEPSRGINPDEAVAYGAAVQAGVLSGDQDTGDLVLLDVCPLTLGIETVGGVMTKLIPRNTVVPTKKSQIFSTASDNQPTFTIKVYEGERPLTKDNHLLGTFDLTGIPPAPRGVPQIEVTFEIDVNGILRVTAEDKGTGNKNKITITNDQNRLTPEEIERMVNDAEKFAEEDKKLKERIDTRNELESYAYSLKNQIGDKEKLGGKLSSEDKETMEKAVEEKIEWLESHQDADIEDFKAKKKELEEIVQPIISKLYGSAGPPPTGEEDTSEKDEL

[5] = molecular target: T2, AMPylated Chinese hamster BiP T229A-V461F double mutant (AMPylated BiP^T229A-V461F) (Chinese hamster (Cricetulus griseus), UniProt G3I8R9 19-654, T229A | V461F, AMP on threonine 518 (T518-AMP)); assay: as above; settings: both partners purified
T2 construct: BiP (Grp78), Chinese hamster (Cricetulus griseus); Construct limits: see note of m1; source: E. coli M15, purified (Ni-NTA)
T2 sequence (G3I8R9 19-654 T229A/V461F): as above

[6] = molecular target: T3, Chinese hamster BiP T518E mutant (BiP^T518E) (Chinese hamster (Cricetulus griseus), UniProt G3I8R9 19-654, T518E); assay: BLI; Octet RED96, streptavidin sensors with biotinylated GST-J (to 0.4 nm) then saturated with biotinylated P15; BiP 15 µM in HKM with 0.05% Triton X-100 and 2 mM ATP for association; dissociation in protein-free solution with 2 mM ADP or ATP; 24°C; one-phase decay fit of the dissociation; settings: both partners purified
T3 construct: BiP (Grp78), Chinese hamster (Cricetulus griseus); Mimics aspects of AMPylation; Construct limits: see note of m1; source: E. coli M15, purified (Ni-NTA)
T3 sequence (G3I8R9 19-654 T518E): as the sequence (G3I8R9 19-654 T229A/V461F) above, with A211T, F443V, T500E counted along it

[7] = molecular target: T4, wildtype Chinese hamster BiP, unmodified (BiP^WT) (Chinese hamster (Cricetulus griseus), UniProt G3I8R9 19-654); assay: as above; settings: both partners purified
T4 construct: BiP (Grp78), Chinese hamster (Cricetulus griseus); also called Grp78; haBiP; source: E. coli M15, purified (Ni-NTA); unmodified control from mock AMPylation reactions without enzyme
T4 sequence (G3I8R9 19-654): as the sequence (G3I8R9 19-654 T229A/V461F) above, with A211T, F443V counted along it

[8] = molecular target: T5, AMPylated wildtype Chinese hamster BiP (BiP^WT-AMP) (Chinese hamster (Cricetulus griseus), UniProt G3I8R9 19-654, AMP on threonine 518 (T518-AMP)); assay: as above; settings: both partners purified
T5 construct: BiP (Grp78), Chinese hamster (Cricetulus griseus); Same construct as m1, AMPylated at high stoichiometry (intact mass spectrometry); Construct limits: see note of m1; also called BiP-AMP; AMPylated BiP; source: E. coli M15, purified (Ni-NTA)
T5 sequence (G3I8R9 19-654): as the sequence (G3I8R9 19-654 T229A/V461F) above, with A211T, F443V counted along it

Chain of wildtype Chinese hamster BiP, unmodified (BiP^WT) (Chinese hamster (Cricetulus griseus)) (G3I8R9 19-654): as the sequence (G3I8R9 19-654 T229A/V461F) above, with A211T, F443V counted along it

wildtype J-domain of mouse P58/ERdj6 (residues 384-470) fused to GST (GST-J^WT) (from UniProt Q91YW3 384-470) (domain or fragment)
rate of ATP hydrolysis by BiP in a single-turnover ATPase assay with wildtype GST-J (2 µM) compared with non-functional GST-J^QPD [1]: > 4 fold

biotinylated GST-J^WT and biotinylated P15 substrate peptide co-immobilized on a streptavidin BLI sensor (from UniProt Q91YW3) H422Q
response [2]: 0.1 nm | response [3]: 0.14 nm

B1: wildtype J-domain of mouse P58/ERdj6 (residues 384-470) fused to GST (GST-J^WT) (domain or fragment, UniProt Q91YW3 384-470, looked up)
chain: QRLLKQSQKRDYYKILGVKRNAKKQEIIKAYRKLALQWHPDNFQNEEEKKKAEKKFIDIAAAKEVLSDPEMRKKFDDGEDPLDAESQ
modifications: biotinylated with Biotin-maleimide for the BLI experiments (a fraction of the purified protein); not biotinylated in pull-down, SEC and ATPase assays
notes: J-domain of P58/ERdj6, mouse, residues 384-470; also called model J-domain
Kd [4]: ~14 µM | Kd [5]: ~14 µM

B2: biotinylated GST-J^WT and biotinylated P15 substrate peptide co-immobilized on a streptavidin BLI sensor (other, mouse)
chain: B1 chain
peptide: ALLLSAPRRGAGKK
modifications: biotinylated with Biotin-maleimide | biotinylated on the C-terminal lysine
notes: J-domain of P58/ERdj6, mouse, residues 384-470; P15 model BiP substrate peptide (Misselwitz et al., 1998); Not a complex: two separately biotinylated ligands on one sensor surface (GST-J to ~0.4 nm signal, then saturation with P15); the signal is not divided among them; also called sensors carrying GST-J^WT and P15; GST-J^WT-coupled sensors; source: GST-J^WT: purified GST-fusion protein, …
koff [6]: 0.00165 s⁻¹ | koff [7]: 0.00079 s⁻¹ | koff [8]: 0.00329 s⁻¹
